Experimental data: article PMC7609953, “Expression, Purification, Refolding, and Characterization of a Neverland Protein From Caenorhabditis elegans” (Frontiers in Bioengineering and Biotechnology, 2020)

Biological target: the molecule itself
Assay: SEC; Superdex200 Increase 10/300 GL, 20 mM Tris-HCl, 150 mM NaCl, 1 mM DTT, pH 8.0, 1 ml/min; aldolase (158 kDa) and conalbumin (75 kDa) as calibration proteins; oligomeric state of the refolded protein

B1: Refolded His-tagged neverland protein from Caenorhabditis elegans (His_CeNVD) (enzyme)
chain: RQLERLKLLRRVGDMPPVFPNGWYCVCESEKLANNQIMEITVLGQFLSLIRSESGAVYITDSYCPHIGANFNIGGRVVRDNCIQCPFHGWIFSAETGKCVEVPYDEGRIPEQAKVTTWPCIERNNNIYLWYHCDGAEPEWEIPEITEITDGFWHLGGRTEHEVMCHIQEIPENGADIAHLNYLHKSAPPVTKGSDIIKTDLSDPQPAVQHVWDGKWEVKSEEDRHCGVMHLNQFMTFWGYKVPLTSSKLVAEQHGPGIVHMLFDFGIWGKGVVFQTVTPEEALLQRVRFRIFSNIPWFFVKFFMTVEAMQFERDVFIWSNKKYIKSPLLVKNDGPIQKHRRWFSQFYTENSPKMLKDGSLSNQAKSIFDW
stoichiometry N: 3
